This assay addresses T1, extracellular region of human V158 FcγRIIIa fused with glutathione S-transferase (GST) (human, UniProt P08637 17-208).
T1 construct: extracellular domain; also called human Val158 FcγRIIIa; not shown: glutathione S-transferase (GST) tag
Briefly: AlphaScreen competition as in Example 2 (biotinylated WT antibody on donor beads, GST-tagged human V158 FcγRIIIa on acceptor beads); Fc variants in the context of rituximab. Background: Alpha assays give light when donor and acceptor beads are brought close together.

T1 sequence (P08637 17-208 F176V): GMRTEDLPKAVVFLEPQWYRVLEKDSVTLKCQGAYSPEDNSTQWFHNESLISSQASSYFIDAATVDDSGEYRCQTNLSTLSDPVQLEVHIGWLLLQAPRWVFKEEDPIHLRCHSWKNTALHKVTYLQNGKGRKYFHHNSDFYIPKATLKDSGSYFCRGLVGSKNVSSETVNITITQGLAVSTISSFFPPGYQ

B1: V264I (antibody)
heavy: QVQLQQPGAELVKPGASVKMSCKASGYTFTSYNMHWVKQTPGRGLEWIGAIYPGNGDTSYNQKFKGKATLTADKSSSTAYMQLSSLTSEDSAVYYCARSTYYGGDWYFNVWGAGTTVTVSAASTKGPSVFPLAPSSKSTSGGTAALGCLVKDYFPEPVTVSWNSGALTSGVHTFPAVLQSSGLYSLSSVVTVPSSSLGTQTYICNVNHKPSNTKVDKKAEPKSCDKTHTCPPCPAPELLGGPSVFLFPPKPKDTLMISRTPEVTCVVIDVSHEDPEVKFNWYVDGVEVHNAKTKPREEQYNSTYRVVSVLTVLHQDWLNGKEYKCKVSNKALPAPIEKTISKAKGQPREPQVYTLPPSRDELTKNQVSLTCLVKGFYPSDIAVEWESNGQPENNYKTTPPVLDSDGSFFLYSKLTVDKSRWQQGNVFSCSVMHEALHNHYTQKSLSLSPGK
light: QIVLSQSPAILSASPGEKVTMTCRASSSVSYIHWFQQKPGSSPKPWIYATSNLASGVPVRFSGSGSGTSYSLTISRVEAEDAATYYCQQWTSNPPTFGGGTKLEIKRTVAAPSVFIFPPSDEQLKSGTASVVCLLNNFYPREAKVQWKVDNALQSGNSQESVTEQDSKDSTYSLSSTLTLSKADYEKHKVYACEVTHQGLSSPVTKSFNRGEC
modifications: N297 glycan, not carried by the letters.
notes: also called rituximab V264I; copies: 2 + 2
For the molecule B1, the “IC50 (read off the curve)” value is about 5 nM.

B2: rituximab V264I/I332E (antibody, human IgG1, kappa)
heavy: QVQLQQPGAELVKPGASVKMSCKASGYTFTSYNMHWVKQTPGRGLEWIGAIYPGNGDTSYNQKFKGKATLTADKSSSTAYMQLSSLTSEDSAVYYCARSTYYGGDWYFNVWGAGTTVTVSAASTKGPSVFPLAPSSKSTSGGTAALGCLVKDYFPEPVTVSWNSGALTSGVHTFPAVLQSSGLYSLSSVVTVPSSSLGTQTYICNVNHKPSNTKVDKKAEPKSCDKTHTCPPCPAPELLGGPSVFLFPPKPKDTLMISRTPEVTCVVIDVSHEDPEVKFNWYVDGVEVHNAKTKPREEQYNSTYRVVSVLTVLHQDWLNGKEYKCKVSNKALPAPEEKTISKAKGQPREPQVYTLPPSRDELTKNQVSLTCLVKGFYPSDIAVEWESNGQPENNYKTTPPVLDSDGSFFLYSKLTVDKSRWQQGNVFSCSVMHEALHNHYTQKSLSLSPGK
light: QIVLSQSPAILSASPGEKVTMTCRASSSVSYIHWFQQKPGSSPKPWIYATSNLASGVPVRFSGSGSGTSYSLTISRVEAEDAATYYCQQWTSNPPTFGGGTKLEIKRTVAAPSVFIFPPSDEQLKSGTASVVCLLNNFYPREAKVQWKVDNALQSGNSQESVTEQDSKDSTYSLSSTLTLSKADYEKHKVYACEVTHQGLSSPVTKSFNRGEC
B2: the “IC50 (read off the curve)” value was about 0.4 nM.

The values are drawn from US20140370021A1 (Xencor, published 2014).
